Numbering of substitutions follows the chain as printed.
B1: 18F11_28H1 (bispecific antibody, human IgG1, kappa)
VH (DR5)-Fc part-VH (FAP)-CL chain: not shown
VL (DR5)-kappa light chain: EIVLTQSPGTLSLSPGERATLSCRASQSVSSSYLAWYQQKPGQAPRLLIYGASSRATGIPDRFSGSGSGTDFTLTISRLEPEDFAVYYCQQGQLPPITFGQGTKVEIKRTVAAPSVFIFPPSDEQLKSGTASVVCLLNNFYPREAKVQWKVDNALQSGNSQESVTEQDSKDSTYSLSSTLTLSKADYEKHKVYACEVTHQGLSSPVTKSFNRGEC
VLCH1 (FAP) chain: EIVLTQSPGTLSLSPGERATLSCRASQSVSRSYLAWYQQKPGQAPRLLIIGASTRATGIPDRFSGSGSGTDFTLTISRLEPEDFAVYYCQQGQVIPPTFGQGTKVEIKSSASTKGPSVFPLAPSSKSTSGGTAALGCLVKDYFPEPVTVSWNSGALTSGVHTFPAVLQSSGLYSLSSVVTVPSSSLGTQTYICNVNHKPSNTKVDKKVEPKSCD
notes: Printed as '18F11' on the sheet
B2: DR5TAA-0037 (bispecific antibody, human IgG1, kappa)
VH (DR5)-Fc part-VH (FAP)-CL chain: not shown
VL (DR5)-kappa light chain: B1 VL (DR5)-kappa light chain with Q93S, L94N, P95Q, I97V
VLCH1 (FAP) chain: B1 VLCH1 (FAP) chain
B3: DR5TAA-0038 (bispecific antibody, human IgG1, kappa)
VH (DR5)-Fc part-VH (FAP)-CL chain: not shown
VL (DR5)-kappa light chain: B1 VL (DR5)-kappa light chain with Q93S, L94Q
VLCH1 (FAP) chain: B1 VLCH1 (FAP) chain
B4: DR5TAA-0039 (bispecific antibody, human IgG1, kappa)
VH (DR5)-Fc part-VH (FAP)-CL chain: not shown
VL (DR5)-kappa light chain: B1 VL (DR5)-kappa light chain with Q93E, L94S, I97P
VLCH1 (FAP) chain: B1 VLCH1 (FAP) chain
notes: also called DR5 (20F2)-28H1 VHCL 2 + 2
B5: DR5TAA-0032 (bispecific antibody, human IgG1, kappa)
HC (DR5-crossed FAP): not shown
LC (DR5): AQVLTQTPSPVSAAVGGTVTINCQASQSVYNNRLAWYQQKPGQPPKLLIYLASTLASGVPSRFKGSGSGTQFTLTISDLQCDDAATYYCAGGYSGNINAFGGGTEVVVKRTVAAPSVFIFPPSDEQLKSGTASVVCLLNNFYPREAKVQWKVDNALQSGNSQESVTEQDSKDSTYSLSSTLTLSKADYEKHKVYACEVTHQGLSSPVTKSFNRGEC
Crossed LC (FAP): B1 VLCH1 (FAP) chain
notes: also called 039-28H1
B6: DR5TAA-0034 (bispecific antibody, human IgG1, kappa)
HC (DR5-crossed FAP): not shown
LC (DR5): ALVMTQTPSSTSEPVGGTVTIKCQASQSIGSSLSWYQQTPGQPPKLLIYTASSLASSVPKRFSGSRSGTQFTLTISGVQCADAATYYCLGIDDVRRDDGFAFGGGTEVVVKRTVAAPSVFIFPPSDEQLKSGTASVVCLLNNFYPREAKVQWKVDNALQSGNSQESVTEQDSKDSTYSLSSTLTLSKADYEKHKVYACEVTHQGLSSPVTKSFNRGEC
Crossed LC (FAP): B1 VLCH1 (FAP) chain
notes: also called 298-28H1
B7: DR5TAA-0067 (antibody, human IgG1, kappa, L234A L235A, V domains shown)
VH: EVQLVETGGGLIQPGGSLRLSCAASGFTVSRYAMIWVRQAPGKGLEYIGFITSDGSTYYADSAKGRFTISRDNSKNTLYLQMNSLRAEDTAVYYCARYTYSDGTDLWGRGTLVTVSS
VL: DIQMTQSPSTLSASVGDRVTITCRASQSISTYLSWYQQKPGKAPKRLIYKASSLASGVPSRFSGSGSGTEFTLTISSLQPDDAATYYCQPNSGIATYGAAFGGGTKVEIKR
notes: humanized variant of DR5TAA-0011; also called VH7/VL15
B8: DR5TAA-0071 (antibody, human IgG1, kappa, L234A L235A)
heavy: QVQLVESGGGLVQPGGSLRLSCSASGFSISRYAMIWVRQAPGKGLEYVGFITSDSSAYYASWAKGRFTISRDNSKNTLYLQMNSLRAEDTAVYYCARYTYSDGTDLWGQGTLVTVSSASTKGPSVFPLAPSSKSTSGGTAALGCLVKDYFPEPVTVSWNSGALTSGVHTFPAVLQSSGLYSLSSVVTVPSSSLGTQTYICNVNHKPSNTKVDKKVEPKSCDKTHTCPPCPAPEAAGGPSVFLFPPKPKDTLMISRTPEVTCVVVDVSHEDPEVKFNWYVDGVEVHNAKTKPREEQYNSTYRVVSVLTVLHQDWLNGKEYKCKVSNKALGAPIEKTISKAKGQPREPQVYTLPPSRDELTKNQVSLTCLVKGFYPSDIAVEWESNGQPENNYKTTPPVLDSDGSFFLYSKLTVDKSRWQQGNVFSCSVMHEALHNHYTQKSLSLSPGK
light: ADIQMTQSPSTLSASVGDRVTITCRASQSISTYLSWYQQKPGKAPKRLIYKASSLASGVPSRFSGSGSGTEFTLTISSLQPDDAATYYCQPNSGIATYGAAFGGGTKVEIKRTVAAPSVFIFPPSDEQLKSGTASVVCLLNNFYPREAKVQWKVDNALQSGNSQESVTEQDSKDSTYSLSSTLTLSKADYEKHKVYACEVTHQGLSSPVTKSFNRGEC
notes: humanized variant of DR5TAA-0011; also called VH17/VL15
B9: DR5TAA-0074 (antibody, human IgG1, kappa, L234A L235A, V domains shown)
VH: B7 VH
VL: B7 VL with T10S, K42Q, A43P, S53T, E70D, D81E, A83F
notes: humanized variant of DR5TAA-0011; also called VH7/VL10
B10: DR5TAA-0066 (antibody, human IgG1, kappa, L234A L235A, V domains shown)
VH: B7 VH
VL: B7 VL with T10S, S53T, E70D, D81E
notes: humanized variant of DR5TAA-0011; also called VH7/VL3
B11: DR5TAA-0068 (antibody, human IgG1, kappa, L234A L235A, V domains shown)
VH: QVQLVESGGGLVQPGGSLRLSCSASGFSISRYAMIWVRQAPGKGLEYVGFITSDSSAYYASWAKGRFTISRDNSKNTLYLQMNSLRAEDTAVYYCARYTYSDGTDLWGQGTLVTVSS
VL: B7 VL with T10S, K42Q, A43P, S53T, E70D, D81E, A83F
notes: humanized variant of DR5TAA-0011; also called VH17/VL10
B12: DR5TAA-0075 (antibody, human IgG1, kappa, L234A L235A, V domains shown)
VH: B7 VH
VL: B7 VL with T10S, R24Q, K42Q, A43P, S53T, E70D, D81E, A83F
notes: humanized variant of DR5TAA-0011; also called VH7/VL11
B13: DR5TAA-0052 (antibody, human IgG1, kappa, L234A L235A, V domains shown)
VH: QSVEESGGRLVTPGTPLTLTCTVSGFSISRYAMIWVRQAPGEGLEYIGFITSDSSAYYASWAKGRFTISKTSTTVDLKMTSPTTEDTATYFCARYTYSDGTDLWGPGTLVTVSS
VL: DIVMTQTPASVSEPVGGTVTIKCQASQSISTYLSWYQQKPGQPPKRLIYKASTLASGVPSRFKGSGSGTDFTLTIRDLESADAATYYCQPNSGIATYGAAFGGGTEVVVKR
notes: rabbit variable, human constant regions; also called chimeric form of DR5TAA-0011; chimeric variant
B14: DR5TAA-0073 (antibody, human IgG1, kappa, L234A L235A, V domains shown)
VH: B11 VH
VL: B7 VL with T10S, S53T, E70D, D81E
notes: humanized variant of DR5TAA-0011; also called VH17/VL3
B15: DR5TAA-0072 (antibody, human IgG1, kappa, L234A L235A)
heavy: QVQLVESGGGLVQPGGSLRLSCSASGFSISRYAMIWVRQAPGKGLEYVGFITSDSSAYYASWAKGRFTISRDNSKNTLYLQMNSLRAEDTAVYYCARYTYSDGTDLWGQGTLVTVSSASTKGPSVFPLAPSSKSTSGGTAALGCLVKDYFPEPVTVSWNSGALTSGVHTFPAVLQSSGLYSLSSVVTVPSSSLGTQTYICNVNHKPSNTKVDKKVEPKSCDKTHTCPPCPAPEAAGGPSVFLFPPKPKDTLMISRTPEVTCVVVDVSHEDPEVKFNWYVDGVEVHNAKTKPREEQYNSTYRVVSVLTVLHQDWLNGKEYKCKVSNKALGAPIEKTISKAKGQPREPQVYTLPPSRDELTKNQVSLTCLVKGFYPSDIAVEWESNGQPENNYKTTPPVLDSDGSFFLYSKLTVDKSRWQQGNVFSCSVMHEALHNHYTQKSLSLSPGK
light: DIQMTQSPSTLSASVGDRVTITCRASQSISTYLSWYQQKPGKAPKRLIYKASSLASGVPSRFSGSGSGTEFTLTISSLQPDDAATYYCQPNSGIATYGAAFGGGTKVEIKRTVAAPSVFIFPPSDEQLKSGTASVVCLLNNFYPREAKVQWKVDNALQSGNSQESVTEQDSKDSTYSLSSTLTLSKADYEKHKVYACEVTHQGLSSPVTKSFNRGEC
notes: humanized variant of DR5TAA-0011; also called VH17/VL2

Columns and labels:
[1] = target: T1, Murine FAP ectodomain + poly-lys-tag + his6-tag (murine, UniProt P97321 27-761); assay: SPR (Biacore), bispecific antibody bound to immobilised human DR5-Fc, recombinant murine FAP as second analyte (simultaneous binding)
T1 construct: also called recombinant soluble murine FAP
T1 sequence (P97321 other isoform, or with tags, fused parts or gaps): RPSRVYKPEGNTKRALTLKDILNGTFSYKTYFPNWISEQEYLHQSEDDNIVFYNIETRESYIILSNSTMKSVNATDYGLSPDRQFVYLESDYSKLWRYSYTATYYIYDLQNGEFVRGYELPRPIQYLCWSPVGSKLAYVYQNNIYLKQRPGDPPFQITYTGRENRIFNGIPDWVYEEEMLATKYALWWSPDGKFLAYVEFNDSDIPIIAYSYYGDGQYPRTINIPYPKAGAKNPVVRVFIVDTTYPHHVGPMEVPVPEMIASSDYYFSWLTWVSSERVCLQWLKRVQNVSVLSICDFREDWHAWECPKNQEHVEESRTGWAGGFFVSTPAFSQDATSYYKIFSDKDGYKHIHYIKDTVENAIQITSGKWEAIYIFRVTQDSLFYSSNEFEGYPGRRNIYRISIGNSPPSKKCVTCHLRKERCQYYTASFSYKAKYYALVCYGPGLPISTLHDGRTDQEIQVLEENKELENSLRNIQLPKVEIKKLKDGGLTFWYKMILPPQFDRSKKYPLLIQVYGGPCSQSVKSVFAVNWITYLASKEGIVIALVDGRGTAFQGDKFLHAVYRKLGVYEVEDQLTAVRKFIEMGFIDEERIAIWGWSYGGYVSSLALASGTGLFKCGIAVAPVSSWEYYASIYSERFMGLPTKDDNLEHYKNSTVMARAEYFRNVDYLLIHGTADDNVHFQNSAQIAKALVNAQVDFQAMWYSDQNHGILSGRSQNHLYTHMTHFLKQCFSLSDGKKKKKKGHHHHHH

[2] = target: T2, Human FAP ectodomain + poly-lys-tag + his6-tag (human, UniProt Q12884 27-760); assay: SPR (Biacore), bispecific antibody bound to immobilised human DR5-Fc, recombinant human FAP as second analyte (simultaneous binding)
T2 construct: also called recombinant soluble human FAP; hFAP

[3] = target: T3, human DR5 (recombinant, fusion format not stated for the assay) (human, UniProt O14763 56-207); assay: binding to human DR5 after stress test, pH 7.4, 2 weeks 40° C., against non-stressed initial material (defined 100%)
T3 construct: all antigen constructs carry ECD aa 56-207; also called hu DR5; huDR5

[4] = target: T3, human DR5 (recombinant, fusion format …); assay: binding to human DR5 after stress test, pH 6.0, 2 weeks 40° C., against non-stressed initial material (defined 100%)
human DR5 ECD-Avi-his = target: T4, human DR5 ECD-Avi-his (human, UniProt O14763 56-207); assay: SPR (BIAcore 3000), antibody captured by anti-human Fc, monomeric DR5 injected
T4 construct: also called recombinant human DR5 (monomeric His-Avi fusion protein); monomeric human DR5

| Binder | binding result [1] | binding result [2] | Relative active concentration as compared to the initial state [3] [%] | Relative active concentration as compared to the initial state [4] [%] | Kd (human DR5 ECD-Avi-his) [nM] | koff (human DR5 ECD-Avi-his) [s⁻¹] | kon (human DR5 ECD-Avi-his) [M⁻¹ s⁻¹] |
| --- | --- | --- | --- | --- | --- | --- | --- |
| B1 | binds | binds | – | – | – | – | – |
| B2 | binds | binds | – | – | – | – | – |
| B3 | binds | binds | – | – | – | – | – |
| B4 | binds | binds | – | – | – | – | – |
| B5 | binds | binds | – | – | – | – | – |
| B6 | binds | binds | – | – | – | – | – |
| B7 | – | – | 107 | 107 | 20 | 0.0052 | 260000 |
| B8 | – | – | 98 | 103 | 15 | 0.0046 | 300000 |
| B9 | – | – | 100 | 103 | 21 | 0.0056 | 270000 |
| B10 | – | – | 100 | 102 | – | – | – |
| B11 | – | – | 101 | 103 | – | – | – |
| B12 | – | – | 99 | 102 | 17 | 0.0056 | 320000 |
| B13 | – | – | – | – | 7 | 0.0024 | 350000 |
| B14 | – | – | 101 | 104 | – | – | – |
| B15 | – | – | 101 | 105 | – | – | – |

From patent publication US20190062453A1 (Hoffmann-La Roche, published 2019)
